Measured values taken from patent US20260144882A1 (BIO THERA SOLUTIONS, published 2026).

Target: T1, human Nectin-4 extracellular antigen hNectin-4-His (human, UniProt Q96NY8 32-349)
T1 construct: C-terminal 8xHis tag included
T1 sequence: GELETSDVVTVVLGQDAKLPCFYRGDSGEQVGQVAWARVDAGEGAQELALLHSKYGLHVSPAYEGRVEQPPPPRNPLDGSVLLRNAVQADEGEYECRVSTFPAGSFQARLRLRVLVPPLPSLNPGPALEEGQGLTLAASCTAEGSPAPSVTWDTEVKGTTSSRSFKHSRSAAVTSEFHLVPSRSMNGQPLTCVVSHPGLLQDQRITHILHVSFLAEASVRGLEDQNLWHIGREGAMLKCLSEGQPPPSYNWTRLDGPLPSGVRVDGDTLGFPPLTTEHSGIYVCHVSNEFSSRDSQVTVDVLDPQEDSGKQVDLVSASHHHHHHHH
Assay: ELISA, phage scFv supernatant 1:50
Experimental: The supernatants were diluted 50-fold, and the binding OD values of the diluted supernatants to hNectin-4-His were measured by ELISA. The samples were serially 3-fold diluted, and the EC₅₀ titer for the binding of the supernatants to the antigen was measured by ELISA. […] The light chain variable region sequence is set forth in SEQ ID NO: 25. The OD value is the measurement of ELISA, and the EC₅₀ value denotes the EC₅₀ value of the binding activity titer of the supernatant to the antigen.

Binder	OD value [OD]
1F3-1G5 scFv (scFv, V domains shown, phage clone supernatant) VH: EVQLVESGGGLVQPGGSLRLSCAASGFSFGSYGMSWVRQAPGKGLEWVSGIKPSTSTTYYADSVKGRFTISRDNSKNTLYLQMNSLRAEDTAVYYCARAELLAFDVYTASDYWGQGTLVTVSS VL: DIQMTQSPSSLSASVGDRVTITCRASQGISSYLAWYQQKPGKAPKLLIYAASSLQSGVPSRFSGSGSGTDFTLTISSLQPEDFATYYCQQHYTTPPTFGQGTKVEIKR	1.56
1F3-1A9 scFv (scFv, V domains shown, phage clone supernatant) VH: EVQLVESGGGLVQPGGSLRLSCAASGYSFDNYAMSWVRQAPGKGLEWVSRISPTGGYASYADSVKGRFTISRDNSKNTLYLQMNSLRAEDTAVYYCARAELLAFDVYTASDYWGQGTLVTVSS VL: DIQMTQSPSSLSASVGDRVTITCRASQGISSYLAWYQQKPGKAPKLLIYAASSLQSGVPSRFSGSGSGTDFTLTISSLQPEDFATYYCQQHYTTPPTFGQGTKVEIKR	1.64
1F3-1B1 scFv (scFv, V domains shown, phage clone supernatant) VH: EVQLVESGGGLVQPGGSLRLSCAASGFTFGTYGMSWVRQAPGKGLEWVSGIKPGDSTTYYADSVKGRFTISRDNSKNTLYLQMNSLRAEDTAVYYCARAELLAFDVYTASDYWGQGTLVTVSS VL: DIQMTQSPSSLSASVGDRVTITCRASQGISSYLAWYQQKPGKAPKLLIYAASSLQSGVPSRFSGSGSGTDFTLTISSLQPEDFATYYCQQHYTTPPTFGQGTKVEIKR	1.65
1F3-1C4 scFv (scFv, V domains shown, phage clone supernatant) VH: EVQLVESGGGLVQPGGSLRLSCAASGFTFGDYGMSWVRQAPGKGLEWVSGIKPWGSGTYYADSVKGRFTISRDNSKNTLYLQMNSLRAEDTAVYYCARAELLAFDVYTASDYWGQGTLVTVSS VL: DIQMTQSPSSLSASVGDRVTITCRASQGISSYLAWYQQKPGKAPKLLIYAASSLQSGVPSRFSGSGSGTDFTLTISSLQPEDFATYYCQQHYTTPPTFGQGTKVEIKR	1.59
1F3-1C11 scFv (scFv, V domains shown, phage clone supernatant) VH: EVQLVESGGGLVQPGGSLRLSCAASGFNFSSYGMSWVRQAPGKGLEWVSAISGSGGSTYYADSVKGRFTISRDNSKNTLYLQMNSLRAEDTAVYYCARAELLAFDVYTASDYWGQGTLVTVSS VL: DIQMTQSPSSLSASVGDRVTITCRASQGISSYLAWYQQKPGKAPKLLIYAASSLQSGVPSRFSGSGSGTDFTLTISSLQPEDFATYYCQQHYTTPPTFGQGTKVEIKR	1.63
1F3-1D1 scFv (scFv, V domains shown, phage clone supernatant) VH: EVQLVESGGGLVQPGGSLRLSCAASGDIFTNYSMSWVRQAPGKGLEWVSGIYPSGDNNRYADSVKGRFTISRDNSKNTLYLQMNSLRAEDTAVYYCARAELLAFDVYTASDYWGQGTLVTVSS VL: DIQMTQSPSSLSASVGDRVTITCRASQGISSYLAWYQQKPGKAPKLLIYAASSLQSGVPSRFSGSGSGTDFTLTISSLQPEDFATYYCQQHYTTPPTFGQGTKVEIKR	1.29
1F3-1D6 scFv (scFv, V domains shown, phage clone supernatant) VH: EVQLVESGGGLVQPGGSLRLSCAASGGSFYGFGMSWVRQAPGKGLEWVSGIYSHDADKRYADSVKGRFTISRDNSKNTLYLQMNSLRAEDTAVYYCARAELLAFDVYTASDYWGQGTLVTVSS VL: DIQMTQSPSSLSASVGDRVTITCRASQGISSYLAWYQQKPGKAPKLLIYAASSLQSGVPSRFSGSGSGTDFTLTISSLQPEDFATYYCQQHYTTPPTFGQGTKVEIKR	1.44
1F3-1D12 scFv (scFv, V domains shown, phage clone supernatant) VH: EVQLVESGGGLVQPGGSLRLSCAASGYNFTDYGMSWVRQAPGKGLEWVSGISGSGDNKYYADSVKGRFTISRDNSKNTLYLQMNSLRAEDTAVYYCARAELLAFDVYTASDYWGQGTLVTVSS VL: DIQMTQSPSSLSASVGDRVTITCRASQGISSYLAWYQQKPGKAPKLLIYAASSLQSGVPSRFSGSGSGTDFTLTISSLQPEDFATYYCQQHYTTPPTFGQGTKVEIKR	1.63
1F3-1E1 scFv (scFv, V domains shown, phage clone supernatant) VH: EVQLVESGGGLVQPGGSLRLSCAASGFSFDDYAMSWVRQAPGKGLEWVSIIYPTGSTNYYADSVKGRFTISRDNSKNTLYLQMNSLRAEDTAVYYCARAELLAFDVYTASDYWGQGTLVTVSS VL: DIQMTQSPSSLSASVGDRVTITCRASQGISSYLAWYQQKPGKAPKLLIYAASSLQSGVPSRFSGSGSGTDFTLTISSLQPEDFATYYCQQHYTTPPTFGQGTKVEIKR	1.64
1F3-1E4 scFv (scFv, V domains shown, phage clone supernatant) VH: EVQLVESGGGLVQPGGSLRLSCAASGFSFGTYGMSWVRQAPGKGLEWVSRISGDSANIRYADSVKGRFTISRDNSKNTLYLQMNSLRAEDTAVYYCARAELLAFDVYTASDYWGQGTLVTVSS VL: DIQMTQSPSSLSASVGDRVTITCRASQGISSYLAWYQQKPGKAPKLLIYAASSLQSGVPSRFSGSGSGTDFTLTISSLQPEDFATYYCQQHYTTPPTFGQGTKVEIKR	1.61
1F3-1E9 scFv (scFv, V domains shown, phage clone supernatant) VH: EVQLVESGGGLVQPGGSLRLSCAASGFTFDDYAMSWVRQAPGKGLEWVSGIKPSSWTTYYADSVKGRFTISRDNSKNTLYLQMNSLRAEDTAVYYCARAELLAFDVYTASDYWGQGTLVTVSS VL: DIQMTQSPSSLSASVGDRVTITCRASQGISSYLAWYQQKPGKAPKLLIYAASSLQSGVPSRFSGSGSGTDFTLTISSLQPEDFATYYCQQHYTTPPTFGQGTKVEIKR	1.55
1F3-1E10 scFv (scFv, V domains shown, phage clone supernatant) VH: EVQLVESGGGLVQPGGSLRLSCAASGFNFSSYGMSWVRQAPGKGLEWVSRISPYTDNKYYADSVKGRFTISRDNSKNTLYLQMNSLRAEDTAVYYCARAELLAFDVYTASDYWGQGTLVTVSS VL: DIQMTQSPSSLSASVGDRVTITCRASQGISSYLAWYQQKPGKAPKLLIYAASSLQSGVPSRFSGSGSGTDFTLTISSLQPEDFATYYCQQHYTTPPTFGQGTKVEIKR	1.54
1F3-1F4 scFv (scFv, V domains shown, phage clone supernatant) VH: EVQLVESGGGLVQPGGSLRLSCAASGDIFTGSSMSWVRQAPGKGLEWVSGIYASGSDKRYADSVKGRFTISRDNSKNTLYLQMNSLRAEDTAVYYCARAELLAFDVYTASDYWGQGTLVTVSS VL: DIQMTQSPSSLSASVGDRVTITCRASQGISSYLAWYQQKPGKAPKLLIYAASSLQSGVPSRFSGSGSGTDFTLTISSLQPEDFATYYCQQHYTTPPTFGQGTKVEIKR	1.42
1F3-1F8 scFv (scFv, V domains shown, phage clone supernatant) VH: EVQLVESGGGLVQPGGSLRLSCAASGFNFGNYGMSWVRQAPGKGLEWVSRISGDGSNINYADSVKGRFTISRDNSKNTLYLQMNSLRAEDTAVYYCARAELLAFDVYTASDYWGQGTLVTVSS VL: DIQMTQSPSSLSASVGDRVTITCRASQGISSYLAWYQQKPGKAPKLLIYAASSLQSGVPSRFSGSGSGTDFTLTISSLQPEDFATYYCQQHYTTPPTFGQGTKVEIKR	1.67
1F3-1G2 scFv (scFv, V domains shown, phage clone supernatant) VH: EVQLVESGGGLVQPGGSLRLSCAASGYTFGDYGMSWVRQAPGKGLEWVSRIDPWGASIRYADSVKGRFTISRDNSKNTLYLQMNSLRAEDTAVYYCARAELLAFDVYTASDYWGQGTLVTVSS VL: DIQMTQSPSSLSASVGDRVTITCRASQGISSYLAWYQQKPGKAPKLLIYAASSLQSGVPSRFSGSGSGTDFTLTISSLQPEDFATYYCQQHYTTPPTFGQGTKVEIKR	1.6
1F3-1G7 scFv (scFv, V domains shown, phage clone supernatant) VH: EVQLVESGGGLVQPGGSLRLSCAASGDIFSNYSMSWVRQAPGKGLEWVSGIYPSGDSRRYADSVKGRFTISRDNSKNTLYLQMNSLRAEDTAVYYCARAELLAFDVYTASDYWGQGTLVTVSS VL: DIQMTQSPSSLSASVGDRVTITCRASQGISSYLAWYQQKPGKAPKLLIYAASSLQSGVPSRFSGSGSGTDFTLTISSLQPEDFATYYCQQHYTTPPTFGQGTKVEIKR	1.56
1F3-1G11 scFv (scFv, V domains shown, phage clone supernatant) VH: EVQLVESGGGLVQPGGSLRLSCAASGYSFTGYGMSWVRQAPGKGLEWVSGISPSGGTIGYADSVKGRFTISRDNSKNTLYLQMNSLRAEDTAVYYCARAELLAFDVYTASDYWGQGTLVTVSS VL: DIQMTQSPSSLSASVGDRVTITCRASQGISSYLAWYQQKPGKAPKLLIYAASSLQSGVPSRFSGSGSGTDFTLTISSLQPEDFATYYCQQHYTTPPTFGQGTKVEIKR	1.65
1F3-1H3 scFv (scFv, V domains shown, phage clone supernatant) VH: EVQLVESGGGLVQPGGSLRLSCAASGFNFYNYGMSWVRQAPGKGLEWVSGIKPHSDVAHYADSVKGRFTISRDNSKNTLYLQMNSLRAEDTAVYYCARAELLAFDVYTASDYWGQGTLVTVSS VL: DIQMTQSPSSLSASVGDRVTITCRASQGISSYLAWYQQKPGKAPKLLIYAASSLQSGVPSRFSGSGSGTDFTLTISSLQPEDFATYYCQQHYTTPPTFGQGTKVEIKR	1.73
1F3-1H11 scFv (scFv, V domains shown, phage clone supernatant) VH: EVQLVESGGGLVQPGGSLRLSCAASGFNFTDYGMSWVRQAPGKGLEWVSRISQWGDTSNYADSVKGRFTISRDNSKNTLYLQMNSLRAEDTAVYYCARAELLAFDVYTASDYWGQGTLVTVSS VL: DIQMTQSPSSLSASVGDRVTITCRASQGISSYLAWYQQKPGKAPKLLIYAASSLQSGVPSRFSGSGSGTDFTLTISSLQPEDFATYYCQQHYTTPPTFGQGTKVEIKR	1.65
1F3-2A11 scFv (scFv, V domains shown, phage clone supernatant) VH: EVQLVESGGGLVQPGGSLRLSCAASGDNFYTFYMSWVRQAPGKGLEWVSGIKPTGSYINYADSVKGRFTISRDNSKNTLYLQMNSLRAEDTAVYYCARAELLAFDVYTASDYWGQGTLVTVSS VL: DIQMTQSPSSLSASVGDRVTITCRASQGISSYLAWYQQKPGKAPKLLIYAASSLQSGVPSRFSGSGSGTDFTLTISSLQPEDFATYYCQQHYTTPPTFGQGTKVEIKR	1.52
